Test results taken from PMC3727926 (Molecular Biology of the Cell, 2013).

T1: GST-Bud2-N, GST-tagged N-terminal 336 amino acids of Bud2p (S. cerevisiae, UniProt P33314 1-336)
T1 sequence (looked up): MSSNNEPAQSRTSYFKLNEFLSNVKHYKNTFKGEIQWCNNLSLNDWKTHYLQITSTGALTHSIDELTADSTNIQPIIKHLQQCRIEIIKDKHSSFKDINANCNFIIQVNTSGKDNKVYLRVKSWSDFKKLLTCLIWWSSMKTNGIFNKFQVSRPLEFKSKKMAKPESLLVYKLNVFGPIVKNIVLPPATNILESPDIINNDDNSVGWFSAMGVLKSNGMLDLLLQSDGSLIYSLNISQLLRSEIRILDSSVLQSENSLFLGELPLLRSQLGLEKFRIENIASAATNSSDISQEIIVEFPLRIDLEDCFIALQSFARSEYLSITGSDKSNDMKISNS

T2: His-Arf3, purified, prebound with GTPγS or GDP (S. cerevisiae, UniProt P40994 1-183)
T2 sequence (looked up): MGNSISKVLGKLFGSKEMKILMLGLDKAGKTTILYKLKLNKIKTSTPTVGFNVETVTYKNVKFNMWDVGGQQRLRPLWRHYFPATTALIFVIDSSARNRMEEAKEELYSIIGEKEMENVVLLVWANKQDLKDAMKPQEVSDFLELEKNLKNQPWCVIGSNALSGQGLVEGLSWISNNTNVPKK

B1: His-Arf3^Q71L, recombinant histidine-tagged constitutively active Arf3 (natural protein, S. cerevisiae, UniProt P40994 1-183, looked up)
chain: MGNSISKVLGKLFGSKEMKILMLGLDKAGKTTILYKLKLNKIKTSTPTVGFNVETVTYKNVKFNMWDVGGLQRLRPLWRHYFPATTALIFVIDSSARNRMEEAKEELYSIIGEKEMENVVLLVWANKQDLKDAMKPQEVSDFLELEKNLKNQPWCVIGSNALSGQGLVEGLSWISNNTNVPKK

What was measured:
Experiment in all cases: pull-down
[1] = molecular target: T1, GST-Bud2-N, GST-tagged N-terminal 336 …
[2] = molecular target: T2, His-Arf3, purified, prebound with GTPγS …
[3] = molecular target: B1

| Binder | binding result [1] | binding result [2] | binding result [3] |
| --- | --- | --- | --- |
| B1 | binds | – | – |
| GST-Bud2N1, GST-tagged first 120 residues of Bud2p (domain or fragment, S. cerevisiae, UniProt P33314 1-120, looked up) MSSNNEPAQSRTSYFKLNEFLSNVKHYKNTFKGEIQWCNNLSLNDWKTHYLQITSTGALTHSIDELTADSTNIQPIIKHLQQCRIEIIKDKHSSFKDINANCNFIIQVNTSGKDNKVYLR | – | binds | binds |
